Test results taken from publication PMC8387964 (2021).

How the values were obtained:
[1] = biological target: Rac1 (Homo sapiens, UniProt P63000)
[2] = biological target: Rac1 (Homo sapiens, UniProt P63000, Rac1 acetylated at K166)

Kd [1]: 2340 nM
Kd [2]: 109 nM
B1: p67phox (protein)
chain: MSLVEAISLWNEGVLAADKKDWKGALDAFSAVQDPHSRICFNIGCMYTILKNMTEAEKAFTRSINRDKHLAVAYFQRGMLYYQTEKYDLAIKDLKEALIQLRGNQLIDYKILGLQFKLFACEVLYNIAFMYAKKEEWKKAEEQLALATSMKSEPRHSKIDKAMECVWKQKLYEPVVIPVGKLFRPNERQVAQLAKKDYLGKATVVASVVDQDSFSGFAPLQPQAAEPPPRPKTPEIFRALEGEAHRVLFGFVPETKEELQVMPGNIVFVLKKGNDNWATVMFNGQKGLVPCNYLEPVELRIHPQQQPQEESSPQSDIPAPPSSKAPGRPQLSPGQKQKEEPKEVKLSVPMPYTLKVHYKYTVVMKTQPGLPYSQVRDMVSKKLELRLEHTKLSYRPRDSNELVPLSEDSMKDAWGQVKNYCLTLWCENTVGDQGFPDEPKESEKADANNQTTEPQLKKGSQVEALFSYEATQPEDLEFQEGDIILVLSKVNEEWLEGECKGKVGIFPKVFVEDCATTDLESTRREV
